Measurements: patent US10787647B2, “HSD17B13 variants and uses thereof” (Regeneron Pharmaceuticals, Inc., priority 2017, dated 2020)

T1: recombinant human HSD17B13 (Homo sapiens, UniProt Q7Z5P4)
T1 sequence (Q7Z5P4 20-300): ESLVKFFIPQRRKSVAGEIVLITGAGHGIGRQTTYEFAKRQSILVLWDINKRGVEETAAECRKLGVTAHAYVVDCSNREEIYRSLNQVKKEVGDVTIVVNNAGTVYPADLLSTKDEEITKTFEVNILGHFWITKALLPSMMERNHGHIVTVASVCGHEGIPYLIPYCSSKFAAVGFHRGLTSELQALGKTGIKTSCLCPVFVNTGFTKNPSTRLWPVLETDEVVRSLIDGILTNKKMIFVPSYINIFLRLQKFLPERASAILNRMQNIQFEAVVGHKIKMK

T2: HSD17B13 (Homo sapiens, UniProt Q7Z5P4)
T2 construct: Transcript A, which encodes the full-length 300 amino acid protein; 10x His (C); host or cells: E. coli
T2 sequence (Q7Z5P4 with tags, fused parts or gaps): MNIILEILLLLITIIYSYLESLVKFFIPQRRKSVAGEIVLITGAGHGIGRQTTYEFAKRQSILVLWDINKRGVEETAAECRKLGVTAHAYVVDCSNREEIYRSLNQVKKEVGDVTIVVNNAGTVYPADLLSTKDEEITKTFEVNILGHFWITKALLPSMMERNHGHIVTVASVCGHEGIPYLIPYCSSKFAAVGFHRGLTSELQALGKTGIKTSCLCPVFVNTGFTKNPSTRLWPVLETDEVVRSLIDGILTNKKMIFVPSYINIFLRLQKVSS

B1: HSD17B13 Isoform A: HSD17B13 Protein Isoform A, SEQ ID NO: 12; full-length 300 amino acid protein encoded by Transcript A (protein, listed as Homo sapiens)
chain: MNIILEILLLLITIIYSYLESLVKFFIPQRRKSVAGEIVLITGAGHGIGRQTTYEFAKRQSILVLWDINKRGVEETAAECRKLGVTAHAYVVDCSNREEIYRSLNQVKKEVGDVTIVVNNAGTVYPADLLSTKDEEITKTFEVNILGHFWITKALLPSMMERNHGHIVTVASVCGHEGIPYLIPYCSSKFAAVGFHRGLTSELQALGKTGIKTSCLCPVFVNTGFTKNPSTRLWPVLETDEVVRSLIDGILTNKKMIFVPSYINIFLRLQKFLPERASAILNRMQNIQFEAVVGHKIKMK
modifications: (1)..(70) Region Encoded by Exon 1; (71)..(106) Region Encoded by Exon 2; (107)..(150) Region Encoded by Exon 3; (151)..(185) Region Encoded by Exon 4; (186)..(232) Region Encoded by Exon 5; (233)..(271) Region Encoded by Exon 6v1; (272)..(300) Region Encoded by Exon 7
B2: HSD17B13 Isoform D: HSD17B13 Protein Isoform D, SEQ ID NO: 15; prematurely truncated protein encoded by Transcript D of the rs72613567 variant (protein, listed as Homo sapiens)
chain: T2 sequence (Q7Z5P4 with tags, fused parts or gaps)
modifications: (1)..(70) Region Encoded by Exon 1; (71)..(106) Region Encoded by Exon 2; (107)..(150) Region Encoded by Exon 3; (151)..(185) Region Encoded by Exon 4; (186)..(232) Region Encoded by Exon 5; (233)..(271) Region Encoded by Exon 6v2; (272)..(274) Region Encoded by Exon 7

Tests used:
[1] = target: T1, recombinant human HSD17B13; assay: Substrate screening of steroid and bioactive lipid libraries against purified recombinant HSD17B13 (NADH-Glo); type: biochemical; details: putative substrate screen with recombinant protein
Procedure: Reactions were performed in a final volume of 40 μL of assay buffer (0.2 M Tris-HCl, pH 7.5) which contained 500 μM NAD^±, 5 μM bioactive lipid or 50 μM steroid (all in a final concentration of 5% DMSO), and 100 ng recombinant human HSD17B13. Reactions were incubated for 3 hours, at 23° C., after which an equal volume NADH-Glo Detection Reagent (Promega) was added. Following a 1 hour incubation at 23° C., the relative light units (RLUs) were measured on an Envision Plate Reader (Perkin Elmer). Raw RLU values were normalized as percent of control (50 μM estradiol) following subtraction of negative control (5% DMSO) using the following formula: Percent of control (POC)=100×(Sample (RLU)−Negative CTRLaverage)/(Positive CTRLaverage−Negative CTRLaverage).

HepG2 cells = assay: Quantification of intracellular triglyceride content in stable cell lines; type: cell-based, human; details: for intracellular triglyceride content versus GFP control: cell lines overexpressing isoform, oleic acid treatment
Procedure: HepG2 cells were cultured in Eagle's Minimum Essential Medium supplemented with 10% fetal bovine serum. HSD17B13 transcripts A and D were sub-cloned into Myc-DDK backbone lentivirus constructs, and lentivirus were generated. HepG2 cells were infected with lentivirus carrying the HSD17B13 transcripts. Stable cell lines expressing each HSD17B13 transcript were selected with 1-3 mg/ml Geneticin G-418 sulfate in complete culture medium for two weeks. Following fixation, HSD17B13 isoforms were detected with mouse anti-Myc antibody. Lipid droplets were labeled with BODIPY FL dye (Sigma). Secondary antibodies for immunofluorescence were Alexa Fluor 488 donkey anti-rabbit IgG and Alexa Fluor 594 donkey anti-mouse IgG (Jackson ImmunoResearch).
The triglyceride (TG) content from the stable cells was determined using a TG quantification kit (Abcam). In the assay, TG are converted to free fatty acids and glycerol. The glycerol is then oxidized to generate a product which is quantified (spectrophotometry at λ=570 nm).

[2] = tested on: HEK293 cells overexpressing HSD17B13 transcript A, transcript D or GFP; assay: Cell-based estradiol to estrone conversion in culture media (LC-MS); parameters: species or system human; details: overexpressed in HEK293 cells, estradiol 1 μM, 48 hours
Procedure: HEK293 cells overexpressing HSD17B13 transcript A, transcript D or green fluorescent protein (GFP, control) were used to investigate the activity of HSD17B13 against estradiol in a cell-based assay. Estradiol (1 μM) was fed to each cell type. After 48 hours, the media was collected and the concentration of estradiol and its converted product estrone were identified and quantified by LC-MS.

HSD17B13 = target: T2, HSD17B13; assay: In vitro enzymatic activity of recombinant HSD17B13 isoforms A and D (NADH production, NAD(P)H-Glo); type: biochemical
Procedure: Recombinant human HSD17B13 protein was purified from E. coli (Genscript) transformed with plasmid DNA harboring HSD17B13 transcript A or transcript D. The HSD17B13 variants contained a 10× His tag at the C terminus and were purified from soluble fraction using a Ni2^+ affinity purification. Enzymatic activity was determined through measurement of NADH production using the NAD(P)H-Glo Detection System (Promega). Reactions were performed for 3 hours at 25° C. in 0.2 M Tris-HCl, pH 7.5, 0.5 mM NAD^+, 75 μM of substrate (Sigma) and 500 ng purified enzyme in a final volume of 100 μL. After incubation, 20 μL of the reaction was combined with 20 μL luciferase reagent (Promega), incubated at room temperature for 1 hour and read on an Envision Plate Reader (Perkin Elmer).

| Molecule | enzymatically converted by HSD17B13 (oxidation of a hydroxyl to a ketone group) [1] | conversion of estradiol (substrate) to estrone (product) measured in the culture media [2] | intracellular triglyceride content versus GFP control (HepG2 cells) | other results |
| --- | --- | --- | --- | --- |
| CCCCC/C=C\C[C@@H](O)/C=C/C=C/C=C\[C@@H](O)CCCC(=O)O [leukotriene B4] | enzymatically converted |  |  |  |
| C[C@]12CC[C@@H]3c4ccc(O)cc4CC[C@H]3[C@@H]1CC[C@@H]2O [estradiol, 17-beta estradiol] | enzymatically converted |  |  |  |
| CCCCCCCC/C=C\CCCCCCCC(=O)O [oleic acid, reference compound] |  |  |  | triglyceride (TG) content (HepG2 cells; increasing concentrations of oleic acid, HepG2 GFP control and HSD17B13 Transcript A and D cell lines): increased triglyceride (TG) content |
| CCCCCC(O)C=CC=CCCCCCCCC(=O)O (stereo not drawn) [13-Hydroxyoctadecadienoic acid] | enzymatically converted |  |  |  |
| B1 |  | robust conversion | No differences |  |
| B2 |  | did not show much conversion | No differences | activity towards the three substrates (HSD17B13; estradiol, leukotriene B4, 13-Hydroxyoctadecadienoic acid, recombinant protein in vitro): greatly reduced activity; activity towards estradiol in vitro compared to HSD17B13 isoform A (HSD17B13; estradiol, recombinant protein, NAD cofactor): greatly reduced activity; enzymatic activity of the corresponding values for Isoform A (HSD17B13; substrates 17-beta estradiol, leukotriene B4, 13(S)-HODE, recombinant protein): < 10%; conversion of estradiol (substrate) to estrone (product) measured in the culture media ([2]; listed as HSD17B13 isoform D): greatly reduced activity |
